Assay results reported in patent US10245299B2, “Autoassembling peptides for the treatment of pulmonary bulla” (3-D MATRIX, LTD., priority 2014, dated 2019).
Where no end group is shown, it is not given here.

Legend:
Format in all cases: physicochemical
[1] = pH and appearance of 2.5% peptide solutions after adding 0.1 N NaOH
Experimental: To adjust the pH level of the peptide solutions by way of example, 0.1 N NaOH was added to 2 mL of 2.5% peptide solutions and their pH and appearance were measured.

[2] = Rheological properties of pH adjusted peptide solutions and hydrogels; settings: KLD12 1%, IEIK13 1%, PuraMatrix® 1% and 2.5%
Experimental: Based on the visual observation of the effect of pH level on the properties of the peptide solutions, the effect on the rheological properties of the peptide solutions after adjusting their pH level to 3.4 (PuraMatrix® and KLD12) or 3.7 (IEIK13) was evaluated. If the pH levels of peptide solutions are higher than 3.5 (PuraMatrix® and KLD12) or 3.7 (IEIK13), the peptide solution began phase separation becoming cloudy. The rheological properties of PuraMatrix®, KLD12 and IEIK13 solutions were higher at pH 3.4. The results are shown in FIG. 2 for KLD12 1%, FIG. 3 for IEIK13 1%, and FIGS. 4-5 for PuraMatrix® 1% and 2.5%, respectively. Stress sweep tests were performed at 10 rad/s. Frequency sweep tests were performed at 1 Pa.
Based on the results of the effect on the rheological properties of the peptide solutions after adjusting their pH level to 3.4 (PuraMatrix® and KLD12) or 3.7 (IEIK13), the effect on the rheological properties of the peptide solutions at various pH levels was evaluated. […] The rheological properties of peptides were evaluated at various concentrations using a rheometer (DHR-1, TA Instruments) with 20 mm plates. The results are shown in FIG. 6A for PuraMatrix® 2.5% solution and FIG. 6B for IEIK13 1.5% solution, respectively. Frequency sweep tests were performed from 1 rad/sec to 10 rad/sec at 1 Pa and the storage modulus at 1 rad/sec was selected for data.
Based on the results of the effect on the rheological properties of the peptide solutions after adjusting their pH level, the effect on the rheological properties of the peptide hydrogels at various pH after DMEM treatment was evaluated and compared to the effect on the rheological properties of the peptide solutions at various pH before DMEM treatment. […] The results are shown in FIGS. 7A-7B for PuraMatrix® and FIGS. 8A-8B for IEIK (SEQ ID NO: 5), respectively. Frequency sweep tests were performed from 1 rad/sec to 10 rad/sec at 1 Pa and the storage modulus at 1 rad/sec was selected for data.

[3] = Gelation kinetics of pH adjusted peptides, time sweep with DMEM
Experimental: The effect of pH level on the properties of gelation kinetics was evaluated to identify optimized pH levels for the peptides as described herein. Fast gelation kinetics of PuraMatrix® and other peptides within body fluid may generally improve its function and response time for various clinical applications. The pH level may impart response time to begin gelation when treated with simulated body fluid including but not limited to DMEM. […] A fast response time of PuraMatrix® and other peptides within body fluid may generally improve its function and response time for various clinical applications.
(§1) Time sweep tests were performed at 1 rad/sec and at 1 Pa with 20 mm plates and 500 μm gap distance. During time sweep test of PuraMatrix® 2.5% solution, DMEM was added into the chamber surrounding the measuring plates to soak PuraMatrix® solution at 0 time point. The results are shown in FIG. 9A for PuraMatrix® 2.5% solution.
as §1, with “IEIK13 1.5%” for “PuraMatrix® 2.5%”, “IEIK13 1.5%” for “PuraMatrix®”, “point and continuously data was recorded.” for “point.”, “9B” for “9A”

[4] = Gelation of peptide solutions after saline buffer treatment, time sweep; settings: saline buffer (0.15 M of NaCl); IEIK13 1.5%, KLD12 1.5%, PuraMatrix® 2.5% solution
Experimental: The effect of salt ionic strength level surrounding peptide solution on the properties of peptide solutions was evaluated to identify the possibility of peptide gelation when the peptide solution is placed into the environment where salt ionic strength level is high. […] Without pH effect, the effect of saline treatment on gelation of peptide solutions were evaluated. […] This is because IEIK13 is much more sensitive to salt ionic strength levels. Fast gelation of IEIK13 at the salt ionic strength level similar to body fluid isotonic salt level may generally improve its function and gelation speed for various clinical applications. The results are shown in FIG. 19 for IEIK13, KLD12 and PuraMatrix® solutions. Time sweep tests were performed at 1 rad/sec and at 1 Pa with 20 mm plates and 500 μm gap distance. […]

[5] = 0.1N NaOH 150 μL/mL, conc. 2.17%, pH 2.7
[6] = 0.1N NaOH 350 μL/mL, conc. 1.85%, pH 4.5
[7] = 0.1N NaOH added in 2.5% solution 0 μL/mL, conc. 2.5%
[8] = 0.1N NaOH added in 2.5% solution 50 μL/mL, conc. 2.38%
[9] = 0.1N NaOH added in 2.5% solution 100 μL/mL, conc. 2.27%
[10] = 0.1N NaOH added in 2.5% solution 150 μL/mL, conc. 2.17%
[11] = 0.1N NaOH added in 2.5% solution 200 μL/mL, conc. 2.08%
[12] = 0.1N NaOH added in 2.5% solution 250 μL/mL, conc. 2.0%
[13] = 0.1N NaOH added in 2.5% solution 275 μL/mL, conc. 1.96%
[14] = 0.1N NaOH added in 2.5% solution 300 μL/mL, conc. 1.92%
[15] = 0.1N NaOH added in 2.5% solution 350 μL/mL, conc. 1.85%
[16] = with pH adjustment, PuraMatrix® 2.5%, IEIK13 1.5% solution

Q: Which Appearance ([1]; 0.1N NaOH 0 μL/mL, conc. 2.5%, pH 2.2) does the source give for “Arg-Ala-Asp-Ala-Arg-Ala-Asp-Ala-Arg-Ala-Asp-Ala-Arg-Ala-Asp-Ala [PuraMatrix®]” here?
A: Clear, thick gel

Q: What about the Appearance ([1]; 0.1N NaOH 50 μL/mL, conc. 2.38%, pH 2.3) of the same substance?
A: Clear, thick gel

Q: And the Appearance ([1]; 0.1N NaOH 100 μL/mL, conc. 2.27%, pH 2.4)?
A: Clear, thick gel

Q: What about the Appearance [1, 5] of the same substance?
A: Clear, thick,

Q: What about the Appearance ([1]; 0.1N NaOH 200 μL/mL, conc. 2.08%, pH 2.9) of the same substance?
A: Clear, thick,

Q: What about the Appearance ([1]; 0.1N NaOH 250 μL/mL, conc. 2.0%, pH 3.2) of the same substance?
A: Clear, thick,

Q: What about the Appearance ([1]; 0.1N NaOH 275 μL/mL, conc. 1.96%, pH 3.4) of the same substance?
A: Clear, thick,

Q: And the Appearance ([1]; 0.1N NaOH 300 μL/mL, conc. 1.92%, pH 3.6)?
A: Slightly cloudy,

Q: And the Appearance [1, 6]?
A: Cloudy, phase-

Q: What about the “Peptide solution pH” value [1, 7] of the same substance?
A: 2.2

Q: What about the “Peptide solution pH” value [1, 8] of the same substance?
A: 2.3

Q: What about the “Peptide solution pH” value [1, 9] of the same substance?
A: 2.4

Q: What about the “Peptide solution pH” value [1, 10] of the same substance?
A: 2.7

Q: And the “Peptide solution pH” value [1, 11]?
A: 2.9

Q: And the “Peptide solution pH” value [1, 12]?
A: 3.2

Q: What about the “Peptide solution pH” value [1, 13] of the same substance?
A: 3.4

Q: What about the “Peptide solution pH” value [1, 14] of the same substance?
A: 3.6

Q: And the “Peptide solution pH” value [1, 15]?
A: 4.5

Q: And the Appearance ([1]; pH 7.0)?
A: Cloudy, phase-

Q: What about the “rheological properties of solutions at pH 3.4” value (“rheological properties” for short) [2] of the same substance?
A: higher

Q: And the “storage modulus response on DMEM addition” value (“storage modulus response” for short) [3, 16]?
A: immediate storage modulus increase

Q: What about the “gelation after saline buffer treatment” value [4] of the same substance?
A: no or negligible gelation

Q: With KLDLKLDLKLDL [KLD12] as the substance, how does the Appearance ([1]; 0.1N NaOH 0 μL/mL, conc. 2.5%, pH 2.1) read?
A: Clear, thick gel

Q: What about the Appearance ([1]; 0.1N NaOH 50 μL/mL, conc. 2.38%, pH 2.4) of the same substance?
A: Clear, thick gel

Q: And the Appearance ([1]; 0.1N NaOH 100 μL/mL, conc. 2.27%, pH 2.6)?
A: Clear, thick gel

Q: And the Appearance ([1]; 0.1N NaOH 250 μL/mL, conc. 2.0%, pH 4.0)?
A: Slightly cloudy,

Q: And the Appearance ([1]; 0.1N NaOH 300 μL/mL, conc. 1.92%, pH 4.7)?
A: Cloudy, brittle gel

Q: And the Appearance ([1]; 0.1N NaOH 350 μL/mL, conc. 1.85%, pH 5.2)?
A: Cloudy, phase-

Q: And the “Peptide solution pH” value [1, 7]?
A: 2.1

Q: And the “Peptide solution pH” value [1, 8]?
A: 2.4

Q: And the “Peptide solution pH” value [1, 9]?
A: 2.6

Q: And the “Peptide solution pH” value [1, 10]?
A: 2.9

Q: What about the “Peptide solution pH” value [1, 11] of the same substance?
A: 3.3

Q: What about the “Peptide solution pH” value ([1]; 0.1N NaOH added in 2.5% solution 225 μL/mL, conc. 2.04%) of the same substance?
A: 3.6

Q: And the “Peptide solution pH” value [1, 12]?
A: 4.0

Q: What about the “Peptide solution pH” value [1, 14] of the same substance?
A: 4.7

Q: What about the “Peptide solution pH” value [1, 15] of the same substance?
A: 5.2

Q: And the Appearance ([1]; pH 7.0)?
A: Cloudy, phase-

Q: What about the “rheological properties” value [2] of the same substance?
A: higher

Q: What about the “gelation after saline buffer treatment” value [4] of the same substance?
A: no or negligible gelation

Q: With “Ile-Glu-Ile-Lys-Ile-Glu-Ile-Lys-Ile-Glu-Ile-Lys-Ile [IEIK13]” as the substance, how does the Appearance ([1]; 0.1N NaOH 0 μL/mL, conc. 2.5%, pH 1.8) read?
A: Clear, thick gel

Q: And the Appearance ([1]; 0.1N NaOH 50 μL/mL, conc. 2.38%, pH 2.1)?
A: Clear, thick gel

Q: What about the Appearance ([1]; 0.1N NaOH 100 μL/mL, conc. 2.27%, pH 2.2) of the same substance?
A: Clear, thick gel

Q: What about the Appearance [1, 5] of the same substance?
A: Clear, thick gel,

Q: What about the Appearance ([1]; 0.1N NaOH 200 μL/mL, conc. 2.08%, pH 3.0) of the same substance?
A: Clear, thick gel,

Q: And the Appearance ([1]; 0.1N NaOH 250 μL/mL, conc. 2.0%, pH 3.3)?
A: Clear, thick gel,

Q: And the Appearance ([1]; 0.1N NaOH 275 μL/mL, conc. 1.96%, pH 3.7)?
A: Clear, thick,

Q: And the Appearance ([1]; 0.1N NaOH 300 μL/mL, conc. 1.92%, pH 4.0)?
A: Slightly cloudy,

Q: What about the Appearance [1, 6] of the same substance?
A: Cloudy, brittle gel

Q: And the Appearance ([1]; 0.1N NaOH 400 μL/mL, conc. 1.79%, pH 5.4)?
A: Cloudy, phase-

Q: What about the “Peptide solution pH” value [1, 7] of the same substance?
A: 1.8

Q: And the “Peptide solution pH” value [1, 8]?
A: 2.1

Q: What about the “Peptide solution pH” value [1, 9] of the same substance?
A: 2.2

Q: And the “Peptide solution pH” value [1, 10]?
A: 2.7

Q: What about the “Peptide solution pH” value [1, 11] of the same substance?
A: 3.0

Q: What about the “Peptide solution pH” value [1, 12] of the same substance?
A: 3.3

Q: And the “Peptide solution pH” value [1, 13]?
A: 3.7

Q: And the “Peptide solution pH” value [1, 14]?
A: 4.0

Q: What about the “Peptide solution pH” value [1, 15] of the same substance?
A: 4.5

Q: What about the “Peptide solution pH” value ([1]; 0.1N NaOH added in 2.5% solution 400 μL/mL, conc. 1.79%) of the same substance?
A: 5.4

Q: What about the Appearance ([1]; pH 7.0) of the same substance?
A: Cloudy, phase-

Q: And the “rheological properties” value [2]?
A: higher

Q: And the “storage modulus response” value [3, 16]?
A: immediate storage modulus increase

Q: What about the “storage modulus response” value ([3]; without pH adjustment) of the same substance?
A: immediate storage modulus increase

Q: What about the “gelation after saline buffer treatment” value [4] of the same substance?
A: fast gelation
